# From US20210040184A1
# Residue numbers refer to the chain shown, from its start.
# B1: Germ6 (antibody, V domains shown)
# VH: ADLVQSGAVVKKPGDSVRVSCEAQGYRFPDYIIHWIRRAPGQGPEWMGWMNPMGGQVNIPWKFQGRVSMTRDTSIETAYLDLRGLKSDDTAVYYCVRDRSNGSGKRFESSNWFLDLWGRGTAVTVQS
# VL: QSALTQPRSVSGSPGQSVTISCTGTHNLVSWCQHQPGRAPKLLIYDFNKRPSGVPDRFSGSGSGGTASLTISGLQDEDDAEYFCWAYEAFGGGTKLTVL
# B2: NglycoNDplus6 (antibody, V domains shown)
# VH: B1 VH with V19I, R27T, Y79F, S100G, N101D, G104R, K105R, R106H, E108D, V125I
# VL: B1 VL with G12A, S72T, E77D
# B3: NglycoSA (antibody, V domains shown)
# VH: B1 VH with V19I, Y79F, S103A, V125I
# VL: B1 VL with G12A, S72T, E77D
# B4: Germ17 (antibody, V domains shown)
# VH: QVDLVQSGAVVKKPGDSVRVSCEAQGYRFPDYIIHWIRRAPGQGPEWMGWMNPMGGQVNIPWKFQGRVSMTRDTSIETAYMDLRGLRSDDTAVYYCVRDRSNGSGKRFESSNWFLDLWGRGTLVTVSS
# VL: B1 VL with Q35H, R38K, L43M, D76A, D79E
# B5: Germ12 (antibody, V domains shown)
# VH: B4 VH
# VL: B1 VL
# B6: CysCV (antibody, V domains shown)
# VH: B1 VH with V19I, Y79F, V125I
# VL: B1 VL with G12A, C32V, S72T, E77D
# B7: Germ12_NglycoSA_CysCA (antibody, V domains shown)
# VH: B4 VH with S104A
# VL: B1 VL with C32A
# B8: NglycoND (antibody, V domains shown)
# VH: B1 VH with V19I, Y79F, N101D, V125I
# VL: B1 VL with G12A, S72T, E77D
# B9: Germ23 (antibody, V domains shown)
# VH: B4 VH with D3Q, V10E, D16A, R19K, Q25S, D82E
# VL: B1 VL with Q35H, R38K, L43M, D76A, D79E
# B10: Germ18 (antibody, V domains shown)
# VH: B4 VH with D3Q, V10E, D16A, R19K, Q25S, D82E
# VL: B1 VL
# B11: CysCA (antibody, V domains shown)
# VH: B1 VH with V19I, Y79F, V125I
# VL: B1 VL with G12A, C32A, S72T, E77D
# B12: NVS49-L1A2 (antibody, V domains shown)
# VH: B1 VH with V19I, Y79F, V125I
# VL: B1 VL with G12A, S72T, E77D
# B13: Hydro2 (antibody, V domains shown)
# VH: B1 VH with V19I, W61Q, Y79F, V125I
# VL: B1 VL with G12A, S72T, E77D, A89N
# Columns and labels:
# [1] = target: Clade C DU172.17 gp120 protein (HIV-1 Clade C, DU172.17); experiment: BLI (Octet), IgG on anti-hIgG Fc sensor, gp120 analyte, 1:1 fit
# [2] = target: Clade B BaL gp120 protein (HIV-1 Clade B, BaL); experiment: as above
# [3] = target: Clade C DU172.17 gp120 protein (HIV-1 Clade C, DU172.17); experiment: BLI (Octet), IgG on anti-hIgG Fc sensor, gp120 analyte, 1:1 fit; average of 4 runs
# [4] = target: Clade B BaL gp120 protein (HIV-1 Clade B, BaL); experiment: as above
Binder,Kd [1] [nM],fold (KD vs average of 4 runs of L1A2) [1] [fold],koff [1] [s⁻¹],kon [1] [M⁻¹ s⁻¹],Kd [2] [nM],fold (KD vs average of 4 runs of L1A2) [2] [fold],koff [2] [s⁻¹],kon [2] [M⁻¹ s⁻¹],Kd [3] [nM],fold (KD vs average of 4 runs of L1A2) [3] [fold],koff [3] [s⁻¹],kon [3] [M⁻¹ s⁻¹],Kd [4] [nM],fold (KD vs average of 4 runs of L1A2) [4] [fold],koff [4] [s⁻¹],kon [4] [M⁻¹ s⁻¹]
B1,19.3,0.76,0.000466,24100,0.92,1.7,7.11e-05,77100,,,,,,,,
B2,,,,,11.3,20.9,0.0006,53300,,,,,,,,
B3,18.4,0.72,0.000303,16500,0.84,1.54,6.12e-05,73300,,,,,,,,
B4,17.5,0.69,0.000331,18900,0.65,1.2,5.15e-05,79300,,,,,,,,
B5,21.5,0.85,0.000438,20400,0.88,1.62,7.09e-05,80800,,,,,,,,
B6,26.7,1.05,0.000495,18500,0.82,1.52,6.4e-05,77900,,,,,,,,
B7,18.1,0.71,0.000337,18600,0.63,1.16,4.92e-05,78300,,,,,,,,
B8,368,14.5,0.0183,49700,18.7,34.5,0.00128,68400,,,,,,,,
B9,22.4,0.88,0.000368,16400,0.97,1.79,7.66e-05,79100,,,,,,,,
B10,21.3,0.84,0.000415,19500,0.98,1.81,7.09e-05,72200,,,,,,,,
B11,19.6,0.77,0.000446,22800,1.1,2.03,8.01e-05,71900,,,,,,,,
B12,,,,,,,,,25.4,1,0.000526,21100,0.54,1,4.41e-05,81300
B13,55.5,2.18,0.000974,17600,0.96,1.77,7.18e-05,74700,,,,,,,,
